Literature values in patent US20200181212A1 (priority 2014, published 2020).

System: trypsin
Conditions: cited from earlier work

asparaginase [native asparaginase]
residual activity: 5%
